Positions count from the first letter of the chain named.
B1: mAb #12-46 (antibody, V domains shown)
VH: EVQLVQSGAEVKKPGASVKVSCKASGYTFTGYYMHWVRQAPGQGLEWMGWINPKTGDTNYAQKFQGRVALSRDTSFNTAYMDLSSLRSDDTAVYYCAREGLSTSSPLDYWGQGTLVTVSS
VL: QPGLTQPPSVSVAPGQSAKITCGENELATNIVHWYQQKPGQAPVLVIYHDNDRPSGIPERFSGSNAGNTATLTISRVEAGDEADFYCQLWDSASDQVVFGGGTTLTVLG
B2: mAb #7-192 (antibody, V domains shown)
VH: EVQLVESGAEVKKPGASVKVSCKTSGYTFTDHYIHWVRQAPGQGLEWMGWINPSSGGTEYAQKFQGRVTMTRDTPISTAYMDLSGLRSDDTAVYYCARETIGGWNALDVWGQGTLVTVSS
VL: MPVLTQPPSVSVAPGQTARITCGGHKIGTKSVHWYQQKPGQAPVLVVYDDRDRPSGIPERFSGSNSGGTATLTISRVEAGDEADYYCQVWDSNSDHVVFGGGTKLTVLS
B3: mAb #17-60 (antibody, V domains shown)
VH: B2 VH
VL: QPVLTQPPSASGTPGQRVTISCSGSSSNIGINTVNWYQQLPRTPPKLLIYTNNQRPSGVPDRFSGSKSDTSASLAISGLQSEDEADYYCAAWDDTLNGPLFGGGTKVTVLG
B4: mAb #5-139 (antibody, V domains shown)
VH: B2 VH with E6Q, L115T
VL: QSVLTQPPSASGSPGQRVTMSCSGSSSTIGRHSVNWYQQLPGTAPKLLIYANNQRPSGVPGRFSASKSDTSASLAISGLRSEDEANYYCAAWDDSLSGVLFGGGTKVTVLG
B5: mAb #1-81 (antibody, V domains shown)
VH: B2 VH
VL: B3 VL
notes: Found as scFv by phage display
B6: mAb #14-182 (antibody, V domains shown)
VH: QVQLVQSGAEVKQPGSSVKVSCKASGYTFTGYYMHWVRQAPGEGLEWLGWINPHSGGTNYAQKFQGRVTITADKSTSTAYMELSSLRSEDTAVYYCAREIVVVTAPAAAAMDVWGQGTLVTVSS
VL: QSVLTQPPSASGSPGQSVTISCTGSSSDVAIYDRVSWYQQPPGTAPKLILYDVHDRPSGVPDRFSGSKSGNTASLTISGLQAEDEADYYCSSYTTSGTFVFGSGTKVTVLG
B7: mAb #15-68 (antibody, V domains shown)
VH: EVQLVQSGAEVKKPGASVNVSCKASGYTFTGYYMHWVRQAPGQGLEWMGWINPNSGGTNYAQKFQGRVTVTTDTSNSTAYMELNRLKSDDTAVYYCAREGSGDLDSLYMDVWGKGTMVTVSS
VL: SYELTQPPSVSVAPGQTARITCGANNIGSKSVHWYQQKPGQAPVLVVYDDSDRPSGIPERFSGSNSGNTATLTITRVEAGDEADYYCQLWDGGSDVVFGGGTKLTVLG
B8: mAb #13-169 (antibody, V domains shown)
VH: EVQLVQSGAEVKRPGASLKVSCKASGYTFTSHYIHWVRQAPGQGLEWMGWINTGNGDTRYSQRFQGRVTVTRDTSASTVYMELSSLRSEDTAVYYCARESSSSWFVAFDVWGQGTTVTVSS
VL: QPVLTQPPSVSLAPGQTARITCSEKNIRSKRVHWYQQKPGQAPVLVMYSDNGRRSGIPDRFSGSNSGNTATLTITRVEAGDEGDFYCQVWDPITDQVVFGGGTKLTVLG
B9: mAb #10-116 (antibody, V domains shown)
VH: EVQLVQSGADVKKPGASVKVSCKASGYTFTGYYIHWVRQAPGQGLEWMGWINPNSGGTNYAQKFQGRVTMTRDTSISTAYMELSRLRSDDTAVYFCVREVKDYYYYMDVWGRGTTVTVSS
VL: NFMLTQPHSVSESPGKTVTISCTRSSGSIASNSVQWYLQRPGSAPTTLIFDNKQRPSGVPDRFSGSIDSSSNSASLSISGLTTEDEADYFCQSYDDSEQVVFGGGTKLTVLS
B10: mAb #11-126 (antibody, V domains shown)
VH: EVQLVESGAEVKKPGASVKVSCKASGYTFTGYYMHWVRQAPGQGLEWLGWVNPHSGGTNYAQKFQGRVTMTRDTSISTAYMELSRLRSDDTAVYYCARETDISANYHFDYWGQGTLVTVSS
VL: QSALTQPASVSGSPGQSITISCTGTSSDVGSYNAVSWYQHHPGKAPKLMIYEVSKRPSGVSNRFSGSKSGNTASLTISGLRAEDEADYYCATWDDSLKGPVFGGGTKLTVLG
B11: mAb 3-167 (antibody, V domains shown)
VH: EVQLVQSGSELKKPGASVKVSCKASGYTFTGYYMHWVRQAPGQGLEWMGWINPNSGGTNYAQKFQGRVTVTTDTSTSTAYMELRSLRSDDTAVYYCAREGVHSDAFDVWGQGTTVTVSS
VL: ETTLTQSPATLSVSPGERATLSCRASQSVYTNLAWYQQKPGQAPSLLIYGASSRATGIPDRFSGSGSGTDFTLTISRLEPEDFAVYYCQQYGSSHFTFGPGTKVDIK

Tests used:
[1] = molecular target: T1, glucocorticoid-induced tumor necrosis factor receptor (GITR) (human, UniProt Q9Y5U5 26-241); assay: flow cytometry on GITR-expressing 293T cells, FITC anti-human Fc detection
T1 construct: whole, on cells; also called GITR expressing 293T cells
T1 sequence (looked up): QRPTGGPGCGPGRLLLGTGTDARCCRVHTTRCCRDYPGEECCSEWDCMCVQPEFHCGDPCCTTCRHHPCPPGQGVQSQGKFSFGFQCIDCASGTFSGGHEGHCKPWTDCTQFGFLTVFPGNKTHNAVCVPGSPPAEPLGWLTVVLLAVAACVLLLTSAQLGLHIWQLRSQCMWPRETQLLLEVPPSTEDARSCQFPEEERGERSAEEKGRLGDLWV

[2] = molecular target: T2, glucocorticoid-induced tumor necrosis factor receptor (GITR) (human, UniProt Q9Y5U5 26-241); assay: flow cytometry, GITR-expressing 293T cells
T2 chain: T1 sequence (looked up)

[3] = molecular target: T2, glucocorticoid-induced tumor necrosis …; assay: BLI

Binder	binding result [1]	EC50 [2]	Kd [3]
B1	binds	72.4 nM	5.07 nM
B2	binds	19.3 nM	3.13 nM
B3		15.1 nM	1.14 nM
B4	binds	16.8 nM	0.42 nM
B5	binds	22.4 nM	1.66 nM
B6	binds	20.5 nM	1.82 nM
B7		26.5 nM	3.81 nM
B8	binds	47 nM	3.21 nM
B9	binds	28.3 nM	4.77 nM
B10	binds	13 nM	2.8 nM
B11	binds	28.2 nM	0.855 nM
